No end group written: not given here. *: point of attachment. FITC = O=C1OC2(c3ccc(O)cc3Oc3cc(O)ccc32)c2ccc(NC(=S)*)cc21

In one assay the target is T1, PBP1b (58-804) (E. coli, UniProt P02919 58-804).
T1 sequence: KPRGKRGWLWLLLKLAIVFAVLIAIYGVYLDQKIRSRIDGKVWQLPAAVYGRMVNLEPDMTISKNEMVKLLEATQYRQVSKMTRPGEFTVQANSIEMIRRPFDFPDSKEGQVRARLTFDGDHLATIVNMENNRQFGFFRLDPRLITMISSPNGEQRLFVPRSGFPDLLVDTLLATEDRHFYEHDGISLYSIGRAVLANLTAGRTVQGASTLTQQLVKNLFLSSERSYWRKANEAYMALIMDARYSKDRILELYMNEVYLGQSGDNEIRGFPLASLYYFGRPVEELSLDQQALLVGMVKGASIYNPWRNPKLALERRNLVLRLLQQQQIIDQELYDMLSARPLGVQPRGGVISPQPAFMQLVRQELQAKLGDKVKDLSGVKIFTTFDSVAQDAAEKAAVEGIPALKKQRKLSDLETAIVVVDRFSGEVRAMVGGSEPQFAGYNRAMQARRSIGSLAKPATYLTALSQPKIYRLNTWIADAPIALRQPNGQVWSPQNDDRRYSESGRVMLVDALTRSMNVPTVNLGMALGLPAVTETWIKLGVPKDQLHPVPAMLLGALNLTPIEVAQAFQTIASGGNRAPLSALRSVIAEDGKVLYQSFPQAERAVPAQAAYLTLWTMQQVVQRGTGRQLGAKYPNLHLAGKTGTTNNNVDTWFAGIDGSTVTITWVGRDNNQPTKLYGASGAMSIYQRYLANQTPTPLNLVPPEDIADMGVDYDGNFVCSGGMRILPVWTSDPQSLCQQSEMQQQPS
The assay is described as follows: crystal structure.

The target of a further assay is T2, PBP1bγ (E. coli, UniProt P02919-2 1-799).
T2 sequence: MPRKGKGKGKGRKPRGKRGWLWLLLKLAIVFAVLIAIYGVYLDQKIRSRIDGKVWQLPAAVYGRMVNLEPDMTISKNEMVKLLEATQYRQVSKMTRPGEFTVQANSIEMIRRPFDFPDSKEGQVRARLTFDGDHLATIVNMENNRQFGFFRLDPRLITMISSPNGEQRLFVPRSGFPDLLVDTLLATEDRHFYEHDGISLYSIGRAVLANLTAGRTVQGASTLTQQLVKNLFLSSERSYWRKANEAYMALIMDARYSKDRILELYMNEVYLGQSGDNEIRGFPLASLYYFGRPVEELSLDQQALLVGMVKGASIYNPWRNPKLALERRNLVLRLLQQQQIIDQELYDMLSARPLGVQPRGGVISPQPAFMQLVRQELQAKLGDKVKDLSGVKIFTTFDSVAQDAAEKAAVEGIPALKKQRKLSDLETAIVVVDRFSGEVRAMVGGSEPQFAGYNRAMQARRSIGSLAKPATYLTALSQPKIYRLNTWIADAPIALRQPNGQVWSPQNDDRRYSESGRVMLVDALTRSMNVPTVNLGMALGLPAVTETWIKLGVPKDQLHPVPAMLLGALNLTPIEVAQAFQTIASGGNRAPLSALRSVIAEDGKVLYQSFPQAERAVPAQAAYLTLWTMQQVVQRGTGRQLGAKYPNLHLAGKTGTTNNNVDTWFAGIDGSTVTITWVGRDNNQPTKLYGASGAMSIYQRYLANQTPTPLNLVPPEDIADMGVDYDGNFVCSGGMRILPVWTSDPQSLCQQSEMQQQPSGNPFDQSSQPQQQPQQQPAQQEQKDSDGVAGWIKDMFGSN
Put plainly: fluorescence polarisation. A general note: In fluorescence polarisation assays a small probe gives low polarisation when free and higher when bound to something large.

B1: ^EFtsN peptide (L75-Q93), unlabeled (peptide)
peptide: LPPKPEERWRYIKELESRQ
As to B1, the binding result with PBP1b (58-804) is listed as “binds”.

B2: FITC labeled peptide (FITC-K69-Q93) of FtsN (peptide)
peptide: {FITC}-KVTGNGLPPKPEERWRYIKELESRQ
B2: binding with PBP1bγ was put at a Kd of 8.1 ± 1.7 µM.

One may read the Kd as the concentration at which binding is half-saturated. A lower Kd goes with higher affinity.

Source of the values: paper doi:10.1101/2020.06.05.136150 (bioRxiv, 2020).
